Source: patent US20180086849A1 (Hoffmann-La Roche, published 2018)

T1: hu-MCSP(D3 domain)-avi-his (human, UniProt Q6UVK1 1582-2224, biotinylated where used for selection or for coupling to the SA chip)
T1 construct: also called human MCSP(D3 domain)-avi-his; human MCSP D3
T1 sequence: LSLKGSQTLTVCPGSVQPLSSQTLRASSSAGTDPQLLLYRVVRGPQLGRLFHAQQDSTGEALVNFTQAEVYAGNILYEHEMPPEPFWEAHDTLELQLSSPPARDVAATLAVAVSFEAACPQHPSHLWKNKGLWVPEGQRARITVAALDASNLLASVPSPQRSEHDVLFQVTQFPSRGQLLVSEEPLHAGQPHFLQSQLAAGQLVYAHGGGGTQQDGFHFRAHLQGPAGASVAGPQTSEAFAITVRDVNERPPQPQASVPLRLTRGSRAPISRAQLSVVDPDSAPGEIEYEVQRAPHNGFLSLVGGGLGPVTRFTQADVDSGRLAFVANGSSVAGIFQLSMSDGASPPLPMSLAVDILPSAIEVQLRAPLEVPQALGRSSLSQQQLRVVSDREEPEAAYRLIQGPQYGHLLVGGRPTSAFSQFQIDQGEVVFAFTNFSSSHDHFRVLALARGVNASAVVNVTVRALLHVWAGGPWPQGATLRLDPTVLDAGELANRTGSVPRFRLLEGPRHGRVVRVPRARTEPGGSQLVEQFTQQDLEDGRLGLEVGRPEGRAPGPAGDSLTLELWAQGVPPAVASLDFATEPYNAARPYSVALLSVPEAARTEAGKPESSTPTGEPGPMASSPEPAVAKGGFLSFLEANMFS

T2: cynomolgus MCSP D3 (cynomolgus, UniProt Q6UVK1 1582-2224 (human entry))
T2 construct: also called cynomolgus homologue; not shown: C-terminal tag
T2 chain: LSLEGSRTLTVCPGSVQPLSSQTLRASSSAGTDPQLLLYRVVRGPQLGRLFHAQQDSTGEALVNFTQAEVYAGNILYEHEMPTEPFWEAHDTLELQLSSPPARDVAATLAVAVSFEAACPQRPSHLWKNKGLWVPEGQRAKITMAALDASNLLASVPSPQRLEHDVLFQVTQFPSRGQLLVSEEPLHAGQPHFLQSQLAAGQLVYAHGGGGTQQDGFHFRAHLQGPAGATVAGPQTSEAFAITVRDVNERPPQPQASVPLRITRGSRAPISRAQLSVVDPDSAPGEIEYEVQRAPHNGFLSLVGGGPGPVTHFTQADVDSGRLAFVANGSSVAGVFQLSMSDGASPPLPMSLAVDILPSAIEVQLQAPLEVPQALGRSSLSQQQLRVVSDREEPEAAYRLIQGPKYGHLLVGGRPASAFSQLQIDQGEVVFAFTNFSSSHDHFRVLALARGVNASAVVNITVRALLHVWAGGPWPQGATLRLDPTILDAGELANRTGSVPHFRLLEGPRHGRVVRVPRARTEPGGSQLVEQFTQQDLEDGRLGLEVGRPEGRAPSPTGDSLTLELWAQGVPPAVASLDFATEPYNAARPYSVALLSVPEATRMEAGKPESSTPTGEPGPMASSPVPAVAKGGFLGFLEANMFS


Legend:
[1] = target: T1, hu-MCSP(D3 domain)-avi-his; assay: SPR (ProteOn XPR36), IgG KD against parental M4-3/ML2
Method: (§1) Briefly, carboxymethylated dextran biosensor chips (CM5, GE Healthcare) were activated with N-ethyl-N′-(3-dimethylaminopropyl)-carbodiimide hydrochloride (EDC) and N-hydroxysuccinimide (NHS) according to the supplier's instructions. Anti-human F(ab′)2 fragment specific capture antibody was diluted with 10 mM sodium acetate, pH 5.0 at 50 μg/ml before injection at a flow rate of 10 μl/minute to achieve approximately up to 10.000 response units (RU) of coupled capture antibody. Following the injection of the capture antibody, 1 M ethanolamine was injected to block unreacted groups. For kinetics measurements, Fabs from bacterial supernatant or purified Fabs are injected at a flow rate of 10 ul/minute for 300 s and a dissociation of 300 s for capture baseline stabilization. […] The surface of the sensorchip was regenerated by injection of glycine pH 1.5 for 30 s at 90 ul/min followed by injection of NaOH for 20 s at the same flow rate. Association rates (kon) and dissociation rates (koff) were calculated using a simple one-to-one Langmuir binding model (ProteOn XPR36 Evaluation Software or Scrubber software (BioLogic)) by simultaneously fitting the association and dissociation sensorgrams. The equilibrium dissociation constant (KD) was calculated as the ratio koff/kon. […] Since CDR1 and 2 of the light chain were randomized independent from CDR3, the obtained CDRs were combined during IgG conversion.
(§2) In the IgG format affinities were measured again to the human MCSP antigen (SEQ ID NO. 390), in addition also to the cynomolgus homologue (SEQ ID NO. 389). Method exactly as described for the Fab fragments, just purified IgG from mammalian production were used.

cynomolgus MCSP D3 = target: T2, cynomolgus MCSP D3; assay: as above
Method: as §1, §2

Row | Binder | Comparative binding affinity - Fold increase over parent [1] [fold] | Comparative binding affinity - Fold increase over parent (cynomolgus MCSP D3) [fold]
1 | M4-3(B7)/ML2 (IgG) (antibody, V domains shown, Human IgG1 format) VH: QVQLQESGPGLVKPSQTLSLTCTVSGGSITSGYYWNWIRQHPGKGLEWIGYITFDGINNYNPSLKSRVTISRDTSKNQFSLKLSSVTAADTAVYYCADFDYWGQGTLVTVSS VL: DIQMTQSPSSLSASVGDRVTITCRASQGIRNYLNWYQQKPGKAPKLLIYYTSSLHSGVPSRFSGSGSGTDFTLTISSLQPEDFATYYCQQYSKLPWTFGQGTKVEIK | 4 | 2.9
2 | M4-3(A7)/ML2 (IgG) (antibody, V domains shown, Human IgG1 format) VH: QVQLQESGPGLVKPSQTLSLTCTVSGGSITDGYYWNWIRQHPGKGLEWIGYITFDGRNNYNPSLKSRVTISRDTSKNQFSLKLSSVTAADTAVYYCADFDYWGQGTLVTVSS VL: DIQMTQSPSSLSASVGDRVTITCRASQGIRNYLNWYQQKPGKAPKLLIYYTSSLHSGVPSRFSGSGSGTDFTLTISSLQPEDFATYYCQQYSKLPWTFGQGTKVEIK | 2.5 | 2
3 | M4-3/ML2 (E10) (IgG) (antibody, V domains shown, Human IgG1 format) VH: QVQLQESGPGLVKPSQTLSLTCTVSGGSITSGYYWNWIRQHPGKGLEWIGYITYDGSNNYNPSLKSRVTISRDTSKNQFSLKLSSVTAADTAVYYCADFDYWGQGTLVTVSS VL: DIQMTQSPSSLSASVGDRVTITCRASYGIRGYLNWYQQKPGKAPKLLIYYTSSLHSGVPSRFSGSGSGTDFTLTISSLQPEDFATYHCQQYSKLPWTFGQGTKVEIK | 2 | 1
4 | M4-3(A7)/ML2(E10) (IgG) (antibody, V domains shown, Human IgG1 format) VH: QVQLQESGPGLVKPSQTLSLTCTVSGGSITDGYYWNWIRQHPGKGLEWIGYITFDGRNNYNPSLKSRVTISRDTSKNQFSLKLSSVTAADTAVYYCADFDYWGQGTLVTVSS VL: DIQMTQSPSSLSASVGDRVTITCRASYGIRGYLNWYQQKPGKAPKLLIYYTSSLHSGVPSRFSGSGSGTDFTLTISSLQPEDFATYHCQQYSKLPWTFGQGTKVEIK | 6.7 | 2.9
5 | M4-3(C1)/ML2 (IgG) (antibody, V domains shown, Human IgG1 format) VH: QVQLQESGPGLVKPSQTLSLTCTVSGGSITSGYYWNWIRQHPGKGLEWIGYITFDGSNNYNPSLKSRVTISRDTSKNQFSLKLSSVTAADTAVYYCADFDYWGQGTLVTVSS VL: DIQMTQSPSSLSASVGDRVTITCRASQGIRNYLNWYQQKPGKAPKLLIYYTSSLHSGVPSRFSGSGSGTDFTLTISSLQPEDFATYYCQQYSKLPWTFGQGTKVEIK | 2.2 | 2.5
6 | M4-3(C1)/ML2(E10) (IgG) (antibody, V domains shown, Human IgG1 format) VH: QVQLQESGPGLVKPSQTLSLTCTVSGGSITSGYYWNWIRQHPGKGLEWIGYITFDGSNNYNPSLKSRVTISRDTSKNQFSLKLSSVTAADTAVYYCADFDYWGQGTLVTVSS VL: DIQMTQSPSSLSASVGDRVTITCRASYGIRGYLNWYQQKPGKAPKLLIYYTSSLHSGVPSRFSGSGSGTDFTLTISSLQPEDFATYHCQQYSKLPWTFGQGTKVEIK | 4 | 3.3
7 | M4-3/ML2(G3) (IgG) (antibody, V domains shown, Human IgG1 format) VH: QVQLQESGPGLVKPSQTLSLTCTVSGGSITSGYYWNWIRQHPGKGLEWIGYITYDGSNNYNPSLKSRVTISRDTSKNQFSLKLSSVTAADTAVYYCADFDYWGQGTLVTVSS VL: DIQMTQSPSSLSASVGDRVTITCRASQGIRNYLNWYQQKPGKAPKLLIYYTSSLHSGVPSRFSGSGSGTDYTLTISSLQPEDFATYYCQQYSALPWTFGQGTKVEIK | 6.7 | 3.3
8 | M4-3/ML2 (C5) (IgG) (antibody, V domains shown, Human IgG1 format) VH: QVQLQESGPGLVKPSQTLSLTCTVSGGSITSGYYWNWIRQHPGKGLEWIGYITYDGSNNYNPSLKSRVTISRDTSKNQFSLKLSSVTAADTAVYYCADFDYWGQGTLVTVSS VL: DIQMTQSPSSLSASVGDRVTITCRASRGIREYLNWYQQKPGKAPKLLIYYTGSLHSGVPSRFSGSGSGTDFTLTISSLQPEDFATYYCQQYSELPWTFGQGTKVEIK | 5 | 2
9 | M4-3(A7)/ML2(G3) (IgG) (antibody, V domains shown, Human IgG1 format) VH: QVQLQESGPGLVKPSQTLSLTCTVSGGSITDGYYWNWIRQHPGKGLEWIGYITFDGRNNYNPSLKSRVTISRDTSKNQFSLKLSSVTAADTAVYYCADFDYWGQGTLVTVSS VL: DIQMTQSPSSLSASVGDRVTITCRASQGIRNYLNWYQQKPGKAPKLLIYYTSSLHSGVPSRFSGSGSGTDYTLTISSLQPEDFATYYCQQYSALPWTFGQGTKVEIK | 28.6 | 10
10 | M4-3(C1)/ML2(C5) (IgG) (antibody, V domains shown, Human IgG1 format) VH: QVQLQESGPGLVKPSQTLSLTCTVSGGSITSGYYWNWIRQHPGKGLEWIGYITFDGSNNYNPSLKSRVTISRDTSKNQFSLKLSSVTAADTAVYYCADFDYWGQGTLVTVSS VL: DIQMTQSPSSLSASVGDRVTITCRASRGIREYLNWYQQKPGKAPKLLIYYTGSLHSGVPSRFSGSGSGTDFTLTISSLQPEDFATYYCQQYSELPWTFGQGTKVEIK | 10 | 6.7
11 | M4-3(D6)/ML2 (IgG) (antibody, V domains shown, Human IgG1 format) VH: QVQLQESGPGLVKPSQTLSLTCTVSGGSITSGYYWNWIRQHPGKGLEWIGYITFDGKNNYNPSLKSRVTISRDTSKNQFSLKLSSVTAADTAVYYCADFDYWGQGTLVTVSS VL: DIQMTQSPSSLSASVGDRVTITCRASQGIRNYLNWYQQKPGKAPKLLIYYTSSLHSGVPSRFSGSGSGTDFTLTISSLQPEDFATYYCQQYSKLPWTFGQGTKVEIK | 5 | 2
12 | M4-3(B8)/ML2 (IgG) (antibody, V domains shown, Human IgG1 format) VH: QVQLQESGPGLVKPSQTLSLTCTVSGGSITSGYYWNWIRQHPGKGLEWIGYITFDGRNNYNPSLKSRVTISRDTSKNQFSLKLSSVTAADTAVYYCADFDYWGQGTLVTVSS VL: DIQMTQSPSSLSASVGDRVTITCRASQGIRNYLNWYQQKPGKAPKLLIYYTSSLHSGVPSRFSGSGSGTDFTLTISSLQPEDFATYYCQQYSKLPWTFGQGTKVEIK | 2.2 | 2
13 | M4-3/ML2 (C5/G3) (IgG) (antibody, V domains shown, Human IgG1 format) VH: QVQLQESGPGLVKPSQTLSLTCTVSGGSITSGYYWNWIRQHPGKGLEWIGYITYDGSNNYNPSLKSRVTISRDTSKNQFSLKLSSVTAADTAVYYCADFDYWGQGTLVTVSS VL: DIQMTQSPSSLSASVGDRVTITCRASRGIREYLNWYQQKPGKAPKLLIYYTGSLHSGVPSRFSGSGSGTDFTLTISSLQPEDFATYYCQQYSALPWTFGQGTKVEIK | 2.9 | 2
